From US20130129725A1 (Amgen, published 2013)

T1: hu-FGFR1c-His (human, UniProt P11362 22-376)
T1 construct: also called human FGFR1c; not shown: His tag
T1 sequence: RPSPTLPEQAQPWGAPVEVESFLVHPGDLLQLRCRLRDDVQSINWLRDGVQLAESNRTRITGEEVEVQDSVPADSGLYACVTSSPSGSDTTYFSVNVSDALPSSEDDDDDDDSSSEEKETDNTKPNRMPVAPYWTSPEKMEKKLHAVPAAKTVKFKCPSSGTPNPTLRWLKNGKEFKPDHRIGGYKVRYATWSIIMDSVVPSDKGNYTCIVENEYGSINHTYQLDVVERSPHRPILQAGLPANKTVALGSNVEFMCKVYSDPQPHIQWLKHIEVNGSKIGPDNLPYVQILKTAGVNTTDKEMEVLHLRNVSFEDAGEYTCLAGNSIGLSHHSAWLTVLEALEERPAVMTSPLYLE

B1: 2G10-Rm26 (bispecific antibody, human IgG1, lambda, N297Q)
heavy: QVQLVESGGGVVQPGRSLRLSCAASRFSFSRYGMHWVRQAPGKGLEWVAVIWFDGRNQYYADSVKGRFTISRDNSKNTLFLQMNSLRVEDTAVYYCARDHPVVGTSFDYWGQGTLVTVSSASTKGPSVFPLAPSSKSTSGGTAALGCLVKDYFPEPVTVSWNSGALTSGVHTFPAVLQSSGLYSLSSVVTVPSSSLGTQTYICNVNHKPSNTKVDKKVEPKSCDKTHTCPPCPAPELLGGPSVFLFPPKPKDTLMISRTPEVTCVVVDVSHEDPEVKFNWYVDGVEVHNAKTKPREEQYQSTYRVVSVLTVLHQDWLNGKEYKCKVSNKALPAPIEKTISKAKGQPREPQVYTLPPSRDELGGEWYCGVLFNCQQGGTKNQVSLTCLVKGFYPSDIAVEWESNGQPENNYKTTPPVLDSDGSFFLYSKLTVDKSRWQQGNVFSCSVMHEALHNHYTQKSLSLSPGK
light: QSVLTQPPSVSAAPGQKVTVSCSGSSSNIGNNYVSWYQQLPGTAPKLLIYDNNKRPSGIPDRFSGSKSGTSATLGITGLQTGDEAEYYCGTWDSSLSVVAFGGGTKLTVLGQPKANPTVTLFPPSSEELQANKATLVCLISDFYPGAVTVAWKADGSPVKAGVETTKPSKQSNNKYAASSYLSLTPEQWKSHRSYSCQVTHEGSTVEKTVAPTECS
notes: also called H2-Rm26
B2: 2G10-Rm40 (bispecific antibody, human IgG1, lambda, N297Q)
heavy: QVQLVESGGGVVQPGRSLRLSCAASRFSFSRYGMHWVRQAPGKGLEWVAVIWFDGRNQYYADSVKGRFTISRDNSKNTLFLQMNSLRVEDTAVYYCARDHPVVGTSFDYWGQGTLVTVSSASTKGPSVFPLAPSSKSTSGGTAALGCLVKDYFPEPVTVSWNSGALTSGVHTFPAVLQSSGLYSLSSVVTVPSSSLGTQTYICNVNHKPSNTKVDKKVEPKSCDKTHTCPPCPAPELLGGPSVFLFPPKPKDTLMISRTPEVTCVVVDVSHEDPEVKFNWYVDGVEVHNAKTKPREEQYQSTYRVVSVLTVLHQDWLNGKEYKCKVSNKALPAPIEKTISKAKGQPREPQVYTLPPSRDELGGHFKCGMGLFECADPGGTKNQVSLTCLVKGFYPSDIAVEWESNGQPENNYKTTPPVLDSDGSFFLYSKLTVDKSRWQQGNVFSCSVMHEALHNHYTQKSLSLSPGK
light: QSVLTQPPSVSAAPGQKVTVSCSGSSSNIGNNYVSWYQQLPGTAPKLLIYDNNKRPSGIPDRFSGSKSGTSATLGITGLQTGDEAEYYCGTWDSSLSVVAFGGGTKLTVLGQPKANPTVTLFPPSSEELQANKATLVCLISDFYPGAVTVAWKADGSPVKAGVETTKPSKQSNNKYAASSYLSLTPEQWKSHRSYSCQVTHEGSTVEKTVAPTECS
notes: also called H2-Rm40
B3: 1A2-Rm26 (bispecific antibody, human IgG1, kappa, N297Q, V domains shown)
VH: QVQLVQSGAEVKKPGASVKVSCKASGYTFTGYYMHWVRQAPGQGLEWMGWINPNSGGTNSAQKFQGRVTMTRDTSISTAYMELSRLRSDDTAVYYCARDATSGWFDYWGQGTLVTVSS
VL: DIVMTQTPLSSPVTLGQPASISCRSSQSLVYSDGNTYLSWLQQRPGQPPRLLIYKISNRFSGVPDRFSGSGAGTDFTLKISRVEADDVGIYYCMQAIEFPWTFGQGTQVEIKR
notes: also called H1-Rm26
B4: Rm26 (peptide)
peptide: EWYCGVLFNCQQ
B5: Rm40 (peptide)
peptide: HFKCGMGLFECADP
B6: SR4 (peptide)
peptide: YQAWGYYV

target: T1, hu-FGFR1c-His; test: ELISA (Example 10), antigen on plate, anti-hu-Fc-HRP detection (FIG. 13)
Procedure: Biotin-hu-β-Klotho-His, biotin-mu-βKlotho-His, hu-FGFR1c-His, and mu-FGFR1c-Fc were expressed and purified. Anti-Fc-HRP was purchased from Thermo Fisher Scientific (Rockford, Ill.). Neutravidin 96 well plates (Thermo Fisher Scientific; Rockford, Ill.) were coated with 2 μg/ml biotin-hu-β-Klotho-His or biotin-mu-β-Klotho-His in PBS (Invitrogen; Carlsbad, Calif.). Maxisorp 96 well plates (Thermo Fisher Scientific; Rockford, Ill.) were coated with 2 μg/ml hu-FGFR1c-His or mu-FGFR1c-Fc in PBS. Plates were then incubated at 4° C. overnight. Plates were blocked in 2% milk-PBS at room temperature for 1 hour. Each well was then incubated 1 hour with samples diluted in 2% milk-PBS. Plates were washed 3 times with 300 μl PBS/0.1% Tween20 (Invitrogen; Carlsbad, Calif. and Sigma-Aldrich; St. Louis, Mo.). Anti-hu-Fc-HRP was diluted 1:10000 in 2% milk-PBS and added to each well. Plates were again washed 3 times with 300 μl PBS/0.1% Tween20. Lumiglo reagent (KPL; Gaithersburg, Md.) was added and luminescence was measured (Perkin Elmer; Waltham, Mass.).

Binding result, binds:
B1
B2
B3

target: T1, hu-FGFR1c-His; test: ELISA (Example 10), antigen on plate (FIG. 13)

Binding result, binds:
B4
B5
B6
